Drawing on PMC3155659, this text covers decrease in APP-Dab1 co-precipitation against control, 20 min of Reelin, decrease in APP-Dab1 co-precipitation against control, 1 hr of Reelin and decrease in APP-Dab1 co-precipitation against control, 4 hrs of Reelin for one molecule.

The target of this test is amyloid precursor protein (APP), endogenous mouse (mouse (endogenous in mouse brain and primary neurons)). In words: co-IP.

B1: Disabled1 (Dab1), endogenous mouse (natural protein)
chain: MSTETELQVAVKTSAKKDSRKKGQDRSEATLIKRFKGEGVRYKAKLIGIDEVSAARGDKLCQDSMMKLKGVVAGARSKGEHKQKIFLTISFGGIKIFDEKTGALQHHHAVHEISYIAKDITDHRAFGYVCGKEGNHRFVAIKTAQAAEPVILDLRDLFQLIYELKQREELEKKAQKDKQCEQAVYQTILEEDVEDPVYQYIVFEAGHEPIRDPETEENIYQVPTSQKKEGVYDVPKSQPNSQPLEDFESRFAAATPNRNLSMDFDELLEATKVSAVTQLELFGDMSTPPDITSPPTPATPGDAFLPSSSQTLPGSADVFGSMSFGTAAVPSGYVAMGAVLPSFWGQQPLVQQQIAMGAQPPVAQVIPGAQPIAWGQPGLFPATQQAWPTVAGQFPPAAFMPTQTVMPLAAAMFQGPLTPLATVPGTNDSARSSPQSDKPRQKMGKESFKDFQMVQPPPVPSRKPDQPSLTCTSEAFSSYFNKVGVAQDTDDCDDFDISQLNLTPVTSTTPSTNSPPTPAPRQSSPSKSSASHVSDPTADDIFEEGFESPSKSEEQEAPDGSQASSTSDPFGEPSGEPSGDNISPQDGS
Molecule B1 came in with a decrease in APP-Dab1 co-precipitation against control, 20 min of Reelin of 89 % decrease; a decrease in APP-Dab1 co-precipitation against control, 1 hr of Reelin of 87 % decrease; a decrease in APP-Dab1 co-precipitation against control, 4 hrs of Reelin of 67 % decrease.
